Measured values taken from the supplement of paper PMC9112550, “Optimization of the antimicrobial peptide Bac7 by deep mutational scanning” (BMC Biology, 2022).

Tested on: Escherichia coli TOP10
Assay: shrunken log2 fold change of peptide-encoding DNA abundance (4.5 h post-induction vs induction); higher = less antimicrobial activity (less host growth inhibition)
Conditions: time post-induction: 4.5 h; library: site-saturation at positions 5, 18, 19, 20
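Also: peptides expressed intracellularly from a pBAD plasmid library in pooled LB shake-flask culture, induced with 0.3% L-arabinose, DNA abundance read by NGS, three biological replicates, DESeq2 with apeglm shrinkage.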

| Sequence | shrunken log2 fold change |
| --- | --- |
| RRIRRRPPRLPRPRPRPPSVPRP | 0.545 |
| RRIRNRPPRLPRPRPRPKDHPRP | -0.218 |
| RRIRPRPPRLPRPRPRPAKWPRP | 0.0878 |
| RRIRERPPRLPRPRPRPMNKPRP | -0.765 |
| RRIRYRPPRLPRPRPRPGANPRP | -0.0888 |
| RRIRSRPPRLPRPRPRPGIFPRP | 0.201 |
| RRIRMRPPRLPRPRPRPLQEPRP | 2.68 |
| RRIRCRPPRLPRPRPRPNWSPRP | -0.206 |
| RRIRVRPPRLPRPRPRPCLDPRP | -0.135 |
| RRIRNRPPRLPRPRPRPSGCPRP | -0.151 |
| RRIRTRPPRLPRPRPRPRMFPRP | -0.0163 |
| RRIRYRPPRLPRPRPRPSAFPRP | -0.607 |
| RRIRVRPPRLPRPRPRPRIDPRP | -0.216 |
| RRIRMRPPRLPRPRPRPQNAPRP | 0.0821 |
| RRIRQRPPRLPRPRPRPNRKPRP | -0.141 |
| RRIRGRPPRLPRPRPRPHRPPRP | -0.00248 |
| RRIRYRPPRLPRPRPRPWSTPRP | -0.458 |
| RRIRGRPPRLPRPRPRPLVKPRP | 0.546 |
| RRIRPRPPRLPRPRPRPNLLPRP | 0.0634 |
| RRIRFRPPRLPRPRPRPNIRPRP | -0.184 |
| RRIRYRPPRLPRPRPRPTQLPRP | -0.46 |
| RRIRIRPPRLPRPRPRPKFGPRP | 0.0227 |
| RRIRVRPPRLPRPRPRPYAGPRP | 0.0438 |
| RRIRVRPPRLPRPRPRPCFNPRP | -0.421 |
| RRIRGRPPRLPRPRPRPGWMPRP | 0.315 |

| Sequence | shrunken log2 fold change |
| --- | --- |
| RRIRSRPPRLPRPRPRPHIHPRP | 0.966 |
| RRIRCRPPRLPRPRPRPRKNPRP | -0.00471 |
| RRIRVRPPRLPRPRPRPDKHPRP | -0.108 |
| RRIRHRPPRLPRPRPRPVEAPRP | 0.0753 |
| RRIRVRPPRLPRPRPRPLHRPRP | -0.0175 |
| RRIRIRPPRLPRPRPRPHEVPRP | -0.0624 |
| RRIRIRPPRLPRPRPRPRLQPRP | 0.123 |
| RRIRRRPPRLPRPRPRPDDDPRP | 0.129 |
| RRIRFRPPRLPRPRPRPEIYPRP | 0.0026 |
| RRIRDRPPRLPRPRPRPNFDPRP | -0.0173 |
| RRIRCRPPRLPRPRPRPPNMPRP | -0.302 |
| RRIRERPPRLPRPRPRPQHYPRP | -0.398 |
| RRIRYRPPRLPRPRPRPKEMPRP | -0.259 |
| RRIRLRPPRLPRPRPRPDEIPRP | -0.0542 |
| RRIRVRPPRLPRPRPRPPDHPRP | 0.271 |
| RRIRLRPPRLPRPRPRPFQRPRP | -0.0382 |
| RRIRARPPRLPRPRPRPFCIPRP | -0.0716 |
| RRIRHRPPRLPRPRPRPPGDPRP | 0.477 |
| RRIRFRPPRLPRPRPRPKHNPRP | -0.483 |
| RRIRSRPPRLPRPRPRPQIDPRP | -0.0914 |
| RRIRGRPPRLPRPRPRPNKNPRP | 0.3 |
| RRIRNRPPRLPRPRPRPRDTPRP | -0.457 |
| RRIRVRPPRLPRPRPRPDFSPRP | -0.373 |
| RRIRRRPPRLPRPRPRPSNQPRP | 0.00316 |
| RRIRARPPRLPRPRPRPYMFPRP | -0.262 |

| Sequence | shrunken log2 fold change |
| --- | --- |
| RRIRRRPPRLPRPRPRPEGEPRP | 1.17 |
| RRIRWRPPRLPRPRPRPGIRPRP | 0.29 |
| RRIRWRPPRLPRPRPRPNCSPRP | -0.162 |
| RRIRVRPPRLPRPRPRPMHLPRP | -0.167 |
| RRIRMRPPRLPRPRPRPEHWPRP | -0.00593 |
| RRIRGRPPRLPRPRPRPTCPPRP | 0.419 |
| RRIRRRPPRLPRPRPRPKEIPRP | 0.205 |
| RRIRYRPPRLPRPRPRPPDRPRP | 0.118 |
| RRIRWRPPRLPRPRPRPCHAPRP | -0.253 |
| RRIRCRPPRLPRPRPRPCRRPRP | 0.0819 |
| RRIRERPPRLPRPRPRPAFPPRP | 0.295 |
| RRIRVRPPRLPRPRPRPEVQPRP | 0.148 |
| RRIRHRPPRLPRPRPRPSNEPRP | -0.271 |
| RRIRSRPPRLPRPRPRPWTWPRP | -0.0804 |
| RRIRTRPPRLPRPRPRPTHVPRP | 0.122 |
| RRIRDRPPRLPRPRPRPQVMPRP | 0.0256 |
| RRIRGRPPRLPRPRPRPVCKPRP | 0.124 |
| RRIRPRPPRLPRPRPRPLQKPRP | -0.0453 |
| RRIRHRPPRLPRPRPRPDYWPRP | -0.187 |
| RRIRGRPPRLPRPRPRPKPTPRP | 0.527 |
| RRIRHRPPRLPRPRPRPHIGPRP | -0.0123 |
| RRIRGRPPRLPRPRPRPESCPRP | 1.33 |
| RRIRYRPPRLPRPRPRPIDAPRP | -0.284 |
| RRIRYRPPRLPRPRPRPPVCPRP | 0.065 |
| RRIRPRPPRLPRPRPRPTPQPRP | 0.497 |

| Sequence | shrunken log2 fold change |
| --- | --- |
| RRIRNRPPRLPRPRPRPFDSPRP | -0.303 |
| RRIRDRPPRLPRPRPRPTCYPRP | 0.289 |
| RRIRQRPPRLPRPRPRPPGPPRP | 0.255 |
| RRIRSRPPRLPRPRPRPFWYPRP | -0.185 |
| RRIRHRPPRLPRPRPRPGNAPRP | 0.137 |
| RRIRERPPRLPRPRPRPQGDPRP | -0.0405 |
| RRIRARPPRLPRPRPRPEPAPRP | 1.43 |
| RRIRKRPPRLPRPRPRPGNMPRP | 0.257 |
| RRIRKRPPRLPRPRPRPFGEPRP | 0.365 |
| RRIRNRPPRLPRPRPRPFNLPRP | -0.207 |
| RRIRCRPPRLPRPRPRPGMLPRP | -0.135 |
| RRIRERPPRLPRPRPRPWEVPRP | -0.17 |
| RRIRPRPPRLPRPRPRPITAPRP | -0.187 |
| RRIRQRPPRLPRPRPRPHNKPRP | -0.599 |
| RRIRKRPPRLPRPRPRPLYCPRP | -0.237 |
| RRIRNRPPRLPRPRPRPYSYPRP | 0.000362 |
| RRIRPRPPRLPRPRPRPHDYPRP | -0.0318 |
| RRIRRRPPRLPRPRPRPWFHPRP | 0.0067 |
| RRIRVRPPRLPRPRPRPYVVPRP | -0.0262 |
| RRIRVRPPRLPRPRPRPAESPRP | 0.0613 |
| RRIRTRPPRLPRPRPRPVQIPRP | -0.0381 |
| RRIRLRPPRLPRPRPRPSGGPRP | -0.153 |
| RRIRSRPPRLPRPRPRPFDSPRP | -0.0702 |
| RRIRDRPPRLPRPRPRPAHMPRP | -0.125 |
| RRIRCRPPRLPRPRPRPFLMPRP | -0.422 |

| Sequence | shrunken log2 fold change |
| --- | --- |
| RRIRERPPRLPRPRPRPHANPRP | -0.332 |
| RRIRYRPPRLPRPRPRPSDKPRP | -0.194 |
| RRIRYRPPRLPRPRPRPIKFPRP | -0.244 |
| RRIRSRPPRLPRPRPRPIGCPRP | -0.144 |
| RRIRWRPPRLPRPRPRPDRHPRP | -0.157 |
| RRIRSRPPRLPRPRPRPVWFPRP | -0.121 |
| RRIRDRPPRLPRPRPRPAAGPRP | 0.793 |
| RRIRARPPRLPRPRPRPAMAPRP | 0.479 |
| RRIRKRPPRLPRPRPRPRNVPRP | 0.132 |
| RRIRRRPPRLPRPRPRPNCFPRP | 0.176 |
| RRIRRRPPRLPRPRPRPHIDPRP | -0.43 |
| RRIRDRPPRLPRPRPRPVPYPRP | -0.244 |
| RRIRTRPPRLPRPRPRPEVRPRP | 0.0828 |
| RRIRFRPPRLPRPRPRPNWSPRP | -0.0531 |
| RRIRKRPPRLPRPRPRPATIPRP | 0.00392 |
| RRIRWRPPRLPRPRPRPCLYPRP | -0.0689 |
| RRIRFRPPRLPRPRPRPFRVPRP | -0.119 |
| RRIRFRPPRLPRPRPRPHAQPRP | -0.305 |
| RRIRWRPPRLPRPRPRPVKVPRP | -0.0471 |
| RRIRLRPPRLPRPRPRPKYHPRP | -0.472 |
| RRIRARPPRLPRPRPRPNKMPRP | -0.177 |
| RRIRHRPPRLPRPRPRPQIWPRP | -0.327 |
| RRIRGRPPRLPRPRPRPDVKPRP | 0.356 |
| RRIRSRPPRLPRPRPRPVIYPRP | -0.226 |
| RRIRARPPRLPRPRPRPFKQPRP | 0.123 |
